Values quoted from earlier work, collected in publication PMC3317066.
pKd, pKi: −log10 of the molar value.

Tests used:
[1] = molecular target: falcipain-2 (Plasmodium falciparum) (UniProt Q8I6U4)
[2] = molecular target: falcipain-3 (Plasmodium falciparum) (UniProt Q8IIL0)
[3] = molecular target: hemoglobin (Homo sapiens) (UniProt P69905)
[4] = molecular target: methemoglobin (Homo sapiens) (UniProt P69905)

Chain of UniProt Q8IIL0 (Q8IIL0 243-492): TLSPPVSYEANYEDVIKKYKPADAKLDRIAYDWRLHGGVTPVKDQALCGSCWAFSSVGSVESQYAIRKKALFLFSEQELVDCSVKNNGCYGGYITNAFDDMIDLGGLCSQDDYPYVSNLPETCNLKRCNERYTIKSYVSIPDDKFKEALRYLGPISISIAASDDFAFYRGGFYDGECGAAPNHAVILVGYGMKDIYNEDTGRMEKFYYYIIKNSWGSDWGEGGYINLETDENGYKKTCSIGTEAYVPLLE

Substance | pKi [1] | pKi [2] | pKd [3] | pKd [4]
cystatin (from UniProt P01038) | 8.19 | 7.00 |  | 
falcipain-2 (from UniProt Q8I6U4) |  |  | 5.48 | 6.10
